These results are taken from patent publication US20250049914A1, “STEROID ACID-PEPTIDE BASED INTRACELLULAR CARGO DELIVERY” (DEFENCE THERAPEUTICS INC., priority 2021, published 2025).

“Also recorded” adds a separate entry of the source. Where a SMILES comes first, the peptide text is derived from it. The star is where a group is joined. Cholyl = C[C@H](CCC(=O)*)[C@H]1CC[C@H]2[C@@H]3[C@H](O)C[C@@H]4C[C@H](O)CC[C@]4(C)[C@H]3C[C@H](O)[C@]12C

One data set deals with EL4 cells. Briefly: Cytochrome C cytosolic delivery, cell death (annexin V binding) by flow cytometry. The format is cell-based. The protocol:
Cytochrome C is a protein that is normally entrapped in the mitochondria but its release into the cytosol in known to induce cell death. An experiment was performed in which EL4 cells were incubated with recombinant cytochrome C either alone (FIG. 8A) or mixed with CA-SV40 NLS (47 μM) (FIG. 8B). Successful delivery of cytochrome C to the cytosol in its active form was assessed by measuring cell death (annexin V binding) via flow cytometry.
For orientation: Flow cytometry measures light scatter and fluorescence of single cells or particles in a stream.

A short description of data set [1]: Intrinsic tryptophan fluorescence (ITF) after thermal stress. The format is physicochemical. Conditions: 80° C., ten minutes, 0.8 mg/mL in PBS. On the procedure:
An Applied Photophysics (Leatherhead, Surrey, UK) Chirascan™ Q100 circular dichroism (CD) spectrometer was used for intrinsic tryptophan fluorescence (ITF) analysis and a VWR digital heatblock (Radnor, PA) was used for dry block temperature incubations. The Chirascan™ Q100 autosampler rack cooling system was used for all 4° C. incubations. Data was analyzed using MATLAB™ software (Natick, MA). Briefly, samples were removed from storage at −20° C. and allowed to equilibrate to room temperature. Samples were then diluted to 0.8 mg/mL in PBS from stock concentrations in the range of 4 to 5 mg/mL. Diluted samples were then analyzed for ITF without exposure to thermal stress (Native) or after ten minutes of thermal stress by dry block incubation. An aliquot of each diluted sample was incubated at 4° C., a second aliquot was incubated at 37° C., while a third aliquot was incubated at 80° C. BSA, diluted to 0.8 mg/mL, was included with the samples under each of the thermal conditions described above. All samples were re-equilibrated to room temperature after incubation. ITF Analysis was performed in […] by excitation at 280 nm with an emission scan range of 200-600 nm with a bandwidth of 1.0 nm, a Time-per point of 1 s, and a Step of 0.5. The triplicate spectra were blank subtracted, averaged, and converted from units of mdeg to relative fluorescence intensity using MATLAB software. […]

A further data set concerns DC2.4 cells. The experiment in a line: eGFP-Gal3 assessment of damaged endosomes by microscopy. The data set is classed as cell-based, murine. The note with it: 0.1 mg/mL cargo, 3 h, 37° C. On the procedure: For this assay, 15×10^3 DC2.4 cells were seeded on a sterile cover slide in a 24-well plate. Two days following transfection of DC2.4 cells with the eGFP-hGal3 mammalian expression vector, 0.1 mg/mL of cargo was added to cells then incubated for 3 h at 37° C. The cells were then washed twice to remove excess protein prior to being mounted on a slide. The slides were viewed by fluorescent microscopy (Nikon, Eclipse™ Ti2-U) and the results analyzed using the ImageJ™ software.
A GFP-galectin-3 (GFP-Gal3) based detection system was utilized to explore the effect on endosomal membranes following intracellular delivery of steroid acid-peptide-conjugated cargoes. […] When expressed under normal conditions, Gal3 is evenly distributed across the cytosol but disruption of endosomal membranes allows Gal3 to access and bind luminal glycoproteins. We thus transiently transfected the murine dendritic cell line DC2.4 with a construct expressing Gal3 fused to enhanced green fluorescent protein (eGFP-Gal3). Two days later, DC2.4 cells were incubated with 0.1 mg/mL of either unconjugated OVA cargo or [CA-SV40]-OVA conjugated cargo for 3 h at 37° C. and the cells were observed by fluorescent microscopy.

The test system of another data set is WT MSCs. The experiment in a line: Antigen cross-presentation assay on wild-type MSCs with B3Z cells. Conditions: WT MSCs pulsed with OVA with or without conjugate. The format is cell-based, mouse. The protocol: In order to generate Bone marrow (BM)-derived mouse MSCs, the femurs of 6-8-week-old female Balb/c or C57BL/6 mice were isolated and flushed with Alpha Modification of Eagle's Medium (AMEM) supplemented with 10% FBS and 50 U/mL Penicillin-Streptomycin in a 10 cm cell culture dish, then incubated at 37° C. Two days later, non-adherent cells were removed and the media replaced every 3 to 4 days until plastic-adherent cells reached 80% confluency. The generated cells were detached using 0.05% trypsin and expanded until a uniform MSC population was obtained. The generated MSCs were validated for their innate phenotype by flow-cytometry for the expression of CD44, CD45, CD73, and CD90. The cells were frozen in liquid nitrogen until use.
To assess cross-presentation assay, 25×10^3 cells MSCs were seeded per well in 24-well plate then pulsed with steroid acid peptide-conjugated for 6 h admixed with OVA. At the end of the pulsing period, the cells were washed to remove excess antigen then 5×10^4 B3Z cells. The cells were incubated for 17-19 hours prior to their lysis and incubation for another 4-6 hours at 37° C. with a CPRG solution. The optical density signal was detected at wavelength 570 using a SynergyH1™ microplate reader (Biotek, Winooski, VT, United States).
To determine whether a similar effect occurs in wild type (WT) (i.e., non-engineered) MSCs, BM-derived MSCs (Example 1) were used instead in the same cross presentation assay with B3Z responder cells.

For data set [2], the system named is primary bone marrow-derived DCs. Briefly: DQ OVA intracellular degradation/processing, flow cytometry. The format is cell-based, mouse. Conditions: primary BMDCs, six hours. The protocol: Mouse bone marrow derived DCs (BMDCs) were generated by flushing the whole marrow from mouse femurs using RPMI™ 1640 supplemented with 10% fetal bovine serum (FBS), 50 U/mL Penicillin-Streptomycin, 2 mM L-glutamine, 10 mM HEPES, 1% MEM Non-essential Amino Acids, 1 mM Sodium Pyruvate, 0.5 mM beta-mercaptoethanol. Following red blood cell lysis, cells were then cultured in media supplemented with 50 ng/mL murine recombinant GM-CSF. The media was changed on days 2, 4, 6 and 8. On day 9, the media was replaced to include recombinant murine GM-CSF and LPS from Escherichia coli 0111 (1 ng/mL) to stimulate DC maturation. Mature DCs were assessed by flow cytometry for their surface expression of CD3, CD19, NK1.1, CD11c, CD80, CD86, and I-A^b. To evaluate OVA degradation/processing, cells were incubated with 10 µg/mL DQ™ OVA (with or without steroid acid-peptide modification) at 37° C. 30 minutes later, cells were washed, and regular media was added. […] Fluorescence was monitored by analyzing the cells by flow cytometry. […] Briefly, while a strong fluorescence quenching effect is observed when the DQ™ OVA substrate remains intact, hydrolysis of DQ™ OVA into single dye-labeled peptides by proteases relieves this quenching, thereby producing brightly fluorescent products. […] Cells were then collected and fluorescence was monitored by flow cytometry.

For `CC(C)[C@H](NC(=O)[C@H](CCCCN)NC(=O)[C@H](CCCNC(=N)N)NC(=O)[C@H](CCCCN)NC(=O)[C@H](CCCCN)NC(=O)[C@H](CCCCN)NC(=O)[C@@H]1CCCN1C(=O)CNC(=O)[C@H](Cc1ccc(O)cc1)NC(=O)CNC(=O)[C@H](CS)NC(=O)CC[C@@H](C)[C@H]1CC[C@H]2[C@@H]3[C@H](O)C[C@@H]4C[C@H](O)CC[C@]4(C)[C@H]3C[C@H](O)[C@]12C)C(=O)NCC(=O)NCC(=O)O` [CA-SV40] (Cholyl-CGYGPKKKRKVGG-OH), the “cell death, conjugate alone” value in the data set with EL4 cells (CA-SV40 NLS conjugate alone) was determined as 19%. For the molecule cytochrome C, the “cell death, cytochrome C alone” value in the data set with EL4 cells (recombinant cytochrome C alone) is reported as “did not trigger cell death”.

B1: OVA: albumin from chicken egg white, unconjugated cargo/antigen (protein, UniProt P01012 2-386, looked up)
Ovalbumin: GSIGAASMEFCFDVFKELKVHHANENIFYCPIAIMSALAMVYLGAKDSTRTQINKVVRFDKLPGFGDSIEAQCGTSVNVHSSLRDILNQITKPNDVYSFSLASRLYAEERYPILPEYLQCVKELYRGGLEPINFQTAADQARELINSWVESQTNGIIRNVLQPSSVDSQTAMVLVNAIVFKGLWEKAFKDEDTQAMPFRVTEQESKPVQMMYQIGLFRVASMASEKMKILELPFASGTMSMLVLLPDEVSGLEQLESIINFEKLTEWTSSNVMEERKIKVYLPRMKMEEKYNLTSVLMAMGITDVFSSSANLSGISSAESLKISQAVHAAHAEINEAGREVVGSAEAGVDAASVSEEFRADHPFLFCIKHIATNAVLFFGRCVSP
B1: in data set [1], the “ITF spectral change after thermal stress (unfolding)” value is recorded as “complete denaturation”. The “eGFP-Gal3 marker pattern (endosomal membrane disruption)” value in the data set with DC2.4 cells was “remained cytosolic; also recorded: diffuse cytosolic pattern”. In addition, the “OVA cross presentation by WT MSCs (B3Z)” value in the data set on WT MSCs is reported as “poorly cross presented”.

B2: 50×-cOVA: OVA conjugated with a 50× molar excess of CA-SV40 NLS, about eight moieties per OVA (conjugate, UniProt P01012 2-386, looked up)
Ovalbumin: GSIGAASMEFCFDVFKELKVHHANENIFYCPIAIMSALAMVYLGAKDSTRTQINKVVRFDKLPGFGDSIEAQCGTSVNVHSSLRDILNQITKPNDVYSFSLASRLYAEERYPILPEYLQCVKELYRGGLEPINFQTAADQARELINSWVESQTNGIIRNVLQPSSVDSQTAMVLVNAIVFKGLWEKAFKDEDTQAMPFRVTEQESKPVQMMYQIGLFRVASMASEKMKILELPFASGTMSMLVLLPDEVSGLEQLESIINFEKLTEWTSSNVMEERKIKVYLPRMKMEEKYNLTSVLMAMGITDVFSSSANLSGISSAESLKISQAVHAAHAEINEAGREVVGSAEAGVDAASVSEEFRADHPFLFCIKHIATNAVLFFGRCVSP
modifications: about eight CA-SV40 NLS conjugates
notes: OVA conjugated with a 50× molar excess of CA-SV40 NLS, about eight moieties per OVA
Consider B2, for which, in data set [1], the “ITF spectral change after thermal stress (unfolding)” value is “partial reduction in peak intensity”.

B3: [CA-SV40]-DQ™ OVA: DQ OVA conjugated with a molar excess of CA-SV40 NLS steroid acid-peptide moieties (conjugate, UniProt P01012 2-386, looked up)
Ovalbumin: GSIGAASMEFCFDVFKELKVHHANENIFYCPIAIMSALAMVYLGAKDSTRTQINKVVRFDKLPGFGDSIEAQCGTSVNVHSSLRDILNQITKPNDVYSFSLASRLYAEERYPILPEYLQCVKELYRGGLEPINFQTAADQARELINSWVESQTNGIIRNVLQPSSVDSQTAMVLVNAIVFKGLWEKAFKDEDTQAMPFRVTEQESKPVQMMYQIGLFRVASMASEKMKILELPFASGTMSMLVLLPDEVSGLEQLESIINFEKLTEWTSSNVMEERKIKVYLPRMKMEEKYNLTSVLMAMGITDVFSSSANLSGISSAESLKISQAVHAAHAEINEAGREVVGSAEAGVDAASVSEEFRADHPFLFCIKHIATNAVLFFGRCVSP
modifications: DQ fluorophore label; CA-SV40 NLS conjugates
notes: DQ OVA conjugated with a molar excess of CA-SV40 NLS steroid acid-peptide moieties
Regarding B3, the “DQ OVA fluorescence (intracellular degradation/processing)” value in data set [2] was “sharp increase”.

B4: [CA-SV40]-OVA: OVA covalently conjugated to CA-SV40 NLS moieties via SM(PEG)4 cross-linker (conjugate, UniProt P01012 2-386, looked up)
Ovalbumin: GSIGAASMEFCFDVFKELKVHHANENIFYCPIAIMSALAMVYLGAKDSTRTQINKVVRFDKLPGFGDSIEAQCGTSVNVHSSLRDILNQITKPNDVYSFSLASRLYAEERYPILPEYLQCVKELYRGGLEPINFQTAADQARELINSWVESQTNGIIRNVLQPSSVDSQTAMVLVNAIVFKGLWEKAFKDEDTQAMPFRVTEQESKPVQMMYQIGLFRVASMASEKMKILELPFASGTMSMLVLLPDEVSGLEQLESIINFEKLTEWTSSNVMEERKIKVYLPRMKMEEKYNLTSVLMAMGITDVFSSSANLSGISSAESLKISQAVHAAHAEINEAGREVVGSAEAGVDAASVSEEFRADHPFLFCIKHIATNAVLFFGRCVSP
modifications: CA-SV40 NLS peptides via SM(PEG)4
notes: OVA covalently conjugated to CA-SV40 NLS moieties via SM(PEG)4 cross-linker
For B4, the “eGFP-Gal3 marker pattern (endosomal membrane disruption)” value in the data set on DC2.4 cells is “became punctate; also recorded: punctate pattern”.

B5: DQ™ OVA: fluorogenic substrate DQ ovalbumin (protein, UniProt P01012 2-386, looked up)
Ovalbumin: GSIGAASMEFCFDVFKELKVHHANENIFYCPIAIMSALAMVYLGAKDSTRTQINKVVRFDKLPGFGDSIEAQCGTSVNVHSSLRDILNQITKPNDVYSFSLASRLYAEERYPILPEYLQCVKELYRGGLEPINFQTAADQARELINSWVESQTNGIIRNVLQPSSVDSQTAMVLVNAIVFKGLWEKAFKDEDTQAMPFRVTEQESKPVQMMYQIGLFRVASMASEKMKILELPFASGTMSMLVLLPDEVSGLEQLESIINFEKLTEWTSSNVMEERKIKVYLPRMKMEEKYNLTSVLMAMGITDVFSSSANLSGISSAESLKISQAVHAAHAEINEAGREVVGSAEAGVDAASVSEEFRADHPFLFCIKHIATNAVLFFGRCVSP
modifications: DQ fluorophore label
notes: fluorogenic substrate DQ ovalbumin
B5: in data set [2], the “DQ OVA fluorescence (intracellular degradation/processing)” value is recorded as “not observed”.
